In patent publication US8722052B2, “Vaccinia virus protein A46 peptide and use thereof” (priority 2008, dated 2014):
Entries after “also recorded” stand apart in the source; their conditions may differ.

Target: T1, TLR3 (Homo sapiens, UniProt O15455)
T1 construct: expressed in transfected cells
Assay: poly(I:C)-induced NFκB / ISRE luciferase reporter assay in HEK293_TLR3 cells
Type: cell-based
Conditions: peptide 2, 5 or 10 μM, 25 μg/ml poly(I:C), 6 h
Method: FIGS. 11A and B are bar charts showing the effect of A464 and scrambled A464 (ConA464) on poly(I:C)-induced TLR3 signalling in HEK293 cells. HEK293_TLR3 cells were seeded in 96 well plates (1.5×10^5 cells/ml) 24 hours before transfection with the plasmid DNA. Cells were transfected with 60 ng of either ISRE-Luciferase (A) or NFκB-Luciferase (B) and 20 ng of TK-Renilla reporter gene plasmids. The total volume of plasmid DNA transfected into the cells was made up to 230 ng by adding pcDNA.
Scrambled A464 (ConA464) (SEQ ID NO. 32) and A464 (SEQ ID NO. 20) peptides were added to the cells at a concentration of 2, 5 or 10 μM the next day and cells were stimulated with 25 μg/ml poly(I:C) 1 hour after treatment with the peptide. Cells were harvested and reporter gene assays performed 6 hr after stimulation with the agonist. No peptides were added to the control wells (black bars). Data is representative of at least three experiments each performed in triplicate. Data are expressed as mean fold induction±s.d. relative to control levels;
FIGS. 20A and B are bar charts showing the effect of shortened A464 peptides with deletions of N- and C-terminal amino acids on TLR4- and TLR3-induced NFκB activation in HEK293 cells. HEK293_TLR4 (A) and HEK293_TLR3 (B) cells were seeded in 96 well plates (1.5×10^5 cells/ml) 24 hours before transfection with the plasmid DNA. Cells were transfected with 60 ng NFκB-Luciferase and 20 ng of TK-Renilla reporter genes, as in FIG. 11. A464N-2 (SEQ ID NO. 41) and A464C-3 (SEQ ID NO. 42) peptides were added to the cells at a concentration of 1, 5 or 25 μM the next day and cells were stimulated with either 10 ng/ml LPS (A) or 25 μg/ml Poly(I:C) (B) 1 hour after treatment with peptides. Cells were harvested and assayed for NFκB activation by reporter gene assay 6 hours after stimulation with the agonists. No peptides were added to the control wells (black bars). Data is representative of three experiments each performed in triplicate and is expressed as mean fold induction±s.d. relative to control levels;
HEK293 cells were transfected using GeneJuice® a proprietary non-toxic transfection reagent. 200 μl/well cells at a density of 1×10^5 cells/ml were seeded the day before transfection. 0.8 μl of GeneJuice was mixed with 9.2 μl of serum-free DMEM (SFM) per transfection and incubated for 5 min at room temperature before adding the appropriate amount of the plasmid DNA. The GeneJuice/SFM/DNA mixture was then incubated at room temperature for 15 min before adding to the cells. 10 μl per well of the GeneJuice/SMF/DNA mixture was added to the cells in triplicate and the cells were allowed to recover for 18-20 hours before stimulation. […]

Sequence: KYSFKLILAEYRRRRRRRRR [Peptide A464]
- inhibition of TLR3-mediated ISRE induction: slightly enhanced; also recorded: insensitive to inhibition
- inhibition of TLR3-mediated NFκB activation: insensitive to inhibition; also recorded: slightly enhanced
